The target of one test is T1, cynomolgus CD28 (cynomolgus, UniProt Q0PDN3 19-152).
T1 construct: Recombinant form not described; also called CD28 (Cynomolgus)
Description: Octet (printed: Octet surface plasmon resonance). Background: In BLI a coated tip is dipped into the sample, and binding shifts an interference pattern.

The next test has as its target T2, human CD32a R167 (human, UniProt P12318 36-218).
T2 construct: Allelic variant named only as R167; also called hCD32a R167
T2 sequence (looked up): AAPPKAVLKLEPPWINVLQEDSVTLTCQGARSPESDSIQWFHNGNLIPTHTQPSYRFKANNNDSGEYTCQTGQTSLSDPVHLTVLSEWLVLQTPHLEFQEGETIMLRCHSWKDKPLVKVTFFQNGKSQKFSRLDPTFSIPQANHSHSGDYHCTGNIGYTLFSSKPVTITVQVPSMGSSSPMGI
Description: Octet (printed: Octet surface plasmon resonance).

For another test, the target named is T3, human CD32a H167 (human, UniProt P12318 36-218).
T3 construct: Allelic variant named only as H167; also called hCD32a H167
T3 sequence (looked up): T2 sequence (looked up) with R132H
Description: Octet (printed: Octet surface plasmon resonance).

The target in another test is T4, human CD32b (human, UniProt P31994 43-217).
T4 construct: also called hCD32b
T4 sequence (looked up): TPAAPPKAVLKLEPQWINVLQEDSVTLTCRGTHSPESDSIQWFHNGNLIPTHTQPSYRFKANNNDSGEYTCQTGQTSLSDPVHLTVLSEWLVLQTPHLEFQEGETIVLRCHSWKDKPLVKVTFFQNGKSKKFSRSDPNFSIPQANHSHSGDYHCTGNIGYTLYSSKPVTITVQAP
Description: Octet (printed: Octet surface plasmon resonance).

The target of another test is T5, human CD16a V158 (human, UniProt P08637 17-208).
T5 construct: Allelic variant named only as V158; also called hCD16a V158
T5 sequence (P08637 17-208 F176V limits assumed): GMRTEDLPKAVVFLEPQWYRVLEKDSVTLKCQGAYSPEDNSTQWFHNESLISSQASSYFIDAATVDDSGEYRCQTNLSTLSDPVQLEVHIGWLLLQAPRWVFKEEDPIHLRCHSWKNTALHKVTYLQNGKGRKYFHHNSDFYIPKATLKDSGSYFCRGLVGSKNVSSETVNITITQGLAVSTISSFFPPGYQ
Put plainly: Octet (printed: Octet surface plasmon resonance).

Another test deals with T6, human CD16a F158 (human, UniProt P08637 17-208).
T6 construct: Allelic variant named only as F158; also called hCD16a F158
T6 sequence (P08637 17-208 limits assumed): as the sequence (P08637 17-208 F176V limits assumed) above, with V160F counted along it
Put plainly: Octet (printed: Octet surface plasmon resonance).

The target in a further test is T7, human CD16b NA2 (human, UniProt O75015 17-200, limits assumed).
T7 construct: also called hCD16b NA2
T7 sequence (O75015 17-200 N65S limits assumed): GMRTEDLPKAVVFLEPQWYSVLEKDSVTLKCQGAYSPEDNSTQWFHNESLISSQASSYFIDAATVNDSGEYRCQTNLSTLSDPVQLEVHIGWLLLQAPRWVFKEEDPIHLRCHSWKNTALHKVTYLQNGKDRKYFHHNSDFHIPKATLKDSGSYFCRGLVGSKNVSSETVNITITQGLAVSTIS
Put plainly: Octet (printed: Octet surface plasmon resonance).

The next test has as its target T8, cynomolgus CD16 (cynomolgus, UniProt Q8SPW2 17-208).
T8 construct: also called cyCD16
Put plainly: Octet (printed: Octet surface plasmon resonance).

In a further test the target is T9, mouse CD64 (mouse, UniProt P26151 25-297).
T9 construct: also called mCD64
T9 sequence (looked up): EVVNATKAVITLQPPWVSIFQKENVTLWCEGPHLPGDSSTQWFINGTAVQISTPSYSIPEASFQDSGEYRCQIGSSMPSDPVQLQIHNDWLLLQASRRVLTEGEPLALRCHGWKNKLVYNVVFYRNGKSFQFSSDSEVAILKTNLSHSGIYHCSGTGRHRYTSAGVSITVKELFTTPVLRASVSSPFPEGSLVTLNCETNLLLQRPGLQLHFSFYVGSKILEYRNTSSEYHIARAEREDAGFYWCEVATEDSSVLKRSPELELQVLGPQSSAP
Description: Octet (printed: Octet surface plasmon resonance).

The next test deals with T10, mouse CD32b (mouse, UniProt P08101 30-207).
T10 construct: also called mCD32b
T10 sequence (looked up): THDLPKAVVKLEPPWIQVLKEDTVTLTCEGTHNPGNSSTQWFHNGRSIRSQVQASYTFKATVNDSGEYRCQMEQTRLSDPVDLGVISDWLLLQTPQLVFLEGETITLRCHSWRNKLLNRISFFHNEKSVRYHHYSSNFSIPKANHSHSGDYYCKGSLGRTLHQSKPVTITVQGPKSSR
Put plainly: Octet (printed: Octet surface plasmon resonance).

The next test deals with T11, mouse CD16 (mouse, UniProt P08508 31-215).
T11 construct: also called mCD16
T11 sequence (looked up): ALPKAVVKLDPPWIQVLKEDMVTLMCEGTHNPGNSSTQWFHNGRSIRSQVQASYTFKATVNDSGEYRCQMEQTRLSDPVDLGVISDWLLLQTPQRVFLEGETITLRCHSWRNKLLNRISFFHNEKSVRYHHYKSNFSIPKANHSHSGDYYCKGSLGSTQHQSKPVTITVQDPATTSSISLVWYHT
Put plainly: Octet (printed: Octet surface plasmon resonance).

The target of the next test is T12, human CD28 (human, UniProt P10747 19-152).
T12 construct: Recombinant form not described; also called CD28 (Human)
Put plainly: Octet (printed: Octet surface plasmon resonance), n = 2.

The next test concerns the target T13, mouse CD28 (mouse, UniProt P31041 20-149, limits assumed).
T13 construct: Recombinant form not described; also called CD28 (Mouse)
The test is described as above.

In the next test the target is T14, human PD-L1 (human, UniProt Q9NZQ7 19-238).
T14 construct: Recombinant form not described; also called PD-L1 (Human); B7-H1
T14 sequence (Q9NZQ7 19-238 limits assumed): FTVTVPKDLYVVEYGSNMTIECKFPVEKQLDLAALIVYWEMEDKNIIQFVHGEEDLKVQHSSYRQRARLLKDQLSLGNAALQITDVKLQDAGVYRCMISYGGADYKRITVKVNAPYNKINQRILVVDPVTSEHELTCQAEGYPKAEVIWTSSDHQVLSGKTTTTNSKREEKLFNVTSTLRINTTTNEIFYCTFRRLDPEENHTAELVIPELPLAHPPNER
The test is described as above.

In a further test the target is T15, cynomolgus PD-L1 (cynomolgus, UniProt G7PSE7 19-238).
T15 construct: Recombinant form not described; also called PD-L1 (Cynomolgus)
T15 sequence (G7PSE7 entry or part of it): as the sequence (Q9NZQ7 19-238 limits assumed) above, with A33T, A34S, S62N, R68Q, Q82R, F173L, T185A, T192I, H215L counted along it
Described as above.

A further test has as its target T16, mouse PD-L1 (mouse, UniProt Q9EP73 19-238, limits assumed).
T16 construct: Recombinant form not described; also called PD-L1 (Mouse)
Described as above.

In test [1] the target is T17, mouse neonatal Fc Receptor (FcRn) (mouse, UniProt Q61559 22-297; P01887 21-119).
T17 construct: also called FcRn (Mouse)
T17 sequence (looked up) 1: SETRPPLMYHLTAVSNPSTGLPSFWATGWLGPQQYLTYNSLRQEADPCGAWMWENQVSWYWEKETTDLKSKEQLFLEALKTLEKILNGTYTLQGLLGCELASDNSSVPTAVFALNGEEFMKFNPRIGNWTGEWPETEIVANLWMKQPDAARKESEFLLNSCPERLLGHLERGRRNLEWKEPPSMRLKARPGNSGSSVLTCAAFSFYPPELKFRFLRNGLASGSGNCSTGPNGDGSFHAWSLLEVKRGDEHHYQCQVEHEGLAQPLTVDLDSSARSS
T17 sequence (looked up) 2: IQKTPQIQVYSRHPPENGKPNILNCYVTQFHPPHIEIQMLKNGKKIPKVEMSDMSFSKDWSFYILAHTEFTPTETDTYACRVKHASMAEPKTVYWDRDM
The description is as above.

Test [2] deals with T18, human neonatal Fc Receptor (FcRn) (human, UniProt P55899 24-297; P61769 21-119).
T18 construct: also called FcRn (Human)
T18 sequence (P55899 24-297 limits assumed, chain 1 of 2): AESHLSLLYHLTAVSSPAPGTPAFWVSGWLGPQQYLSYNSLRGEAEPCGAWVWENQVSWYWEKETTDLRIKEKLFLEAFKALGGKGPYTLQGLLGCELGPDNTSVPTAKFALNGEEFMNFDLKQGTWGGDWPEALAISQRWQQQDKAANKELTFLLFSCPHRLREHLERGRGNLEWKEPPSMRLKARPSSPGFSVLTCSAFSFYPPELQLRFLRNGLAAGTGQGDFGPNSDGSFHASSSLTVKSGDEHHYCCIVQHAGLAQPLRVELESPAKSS
T18 sequence (P61769 21-119 limits assumed, chain 2 of 2): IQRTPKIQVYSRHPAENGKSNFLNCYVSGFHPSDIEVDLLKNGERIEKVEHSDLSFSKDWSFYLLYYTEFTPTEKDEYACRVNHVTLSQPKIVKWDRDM
The test is described as above.

The target of test [3] is T19, cynomolgus neonatal Fc Receptor (FcRn) (cynomolgus, UniProt Q8SPV9 24-297; Q8SPW0 21-119).
T19 construct: also called FcRn (Cynomolgus)
The description is as above.

For the next test, the target named is T20, human CD64 (human, UniProt P12314 16-288).
T20 construct: also called hCD64
T20 sequence (P12314 16-288 limits assumed): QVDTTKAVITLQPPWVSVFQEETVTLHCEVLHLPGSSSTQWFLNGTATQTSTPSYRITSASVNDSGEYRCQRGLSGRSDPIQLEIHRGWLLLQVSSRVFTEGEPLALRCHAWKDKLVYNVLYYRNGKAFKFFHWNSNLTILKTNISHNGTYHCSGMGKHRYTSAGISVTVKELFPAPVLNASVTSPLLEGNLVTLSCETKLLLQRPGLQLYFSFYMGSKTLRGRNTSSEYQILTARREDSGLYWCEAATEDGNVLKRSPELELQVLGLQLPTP
Put plainly: Octet (printed: Octet surface plasmon resonance), n = 1.

Test [4] has as its target T21, PD-L1 on HPAC cells (pre-activated with IFNγ) (human, UniProt Q9NZQ7 19-290).
T21 construct: whole, on cells; also called PD-L1 expressing HPAC cells
Description: flow cytometry on IFNγ-activated HPAC cells (PD-L1+), anti-human IgG secondary antibody, geometric mean. The method, then: Cells were harvested, checked for viability and counted. 200′000 cells were incubated for 15 minutes at 4° C. with increasing concentrations of the antibodies diluted in FACS buffer (PBS 2% BSA, 0.1% NaN3). Cells were washed twice with cold FACS buffer and re-incubated for further 15 minutes at 4′C with a suitable anti-human IgG secondary antibody. Cells were washed twice with cold FACS buffer and resuspended in 150 μl FACS buffer with a compatible viability marker. Binding of antibodies to living cells was measured by flow cytometry using a Cytoflex Platform (Beckman Coulter). Data was analyzed with FlowJo™ v10 software (BD Life Sciences) and dose-response binding curves were drawn using GiraphPad Prism 9 software.
In general terms: A flow cytometer gives signals particle by particle.

In test [5] the target is PD-L1 on engineered CHO-K1 artificial Antigen Presenting Cells (aAPC) (Homo sapiens (Human), UniProt Q9NZQ7 19-290). Put plainly: cell-based or functional assay.
Sequence of PD-L1 on engineered CHO-K1 artificial Antigen Presenting Cells (aAPC) (Q9NZQ7 19-290 limits assumed, change not shown): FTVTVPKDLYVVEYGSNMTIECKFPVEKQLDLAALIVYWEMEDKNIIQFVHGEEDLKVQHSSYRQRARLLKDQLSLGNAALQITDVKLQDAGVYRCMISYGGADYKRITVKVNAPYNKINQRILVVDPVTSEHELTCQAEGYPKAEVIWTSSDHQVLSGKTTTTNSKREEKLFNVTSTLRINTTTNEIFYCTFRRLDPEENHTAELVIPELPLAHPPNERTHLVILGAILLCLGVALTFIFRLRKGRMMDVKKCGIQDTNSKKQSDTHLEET

Positions count from the first letter of the chain named.

T21 sequence (Q9NZQ7 19-290): as the sequence (Q9NZQ7 19-290 limits assumed, change not shown) above
T13 sequence (P31041 20-149 limits assumed): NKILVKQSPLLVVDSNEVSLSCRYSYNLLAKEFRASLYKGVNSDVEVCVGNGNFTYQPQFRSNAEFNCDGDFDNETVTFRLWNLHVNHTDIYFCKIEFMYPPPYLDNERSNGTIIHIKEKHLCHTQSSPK
T16 sequence (Q9EP73 19-238 limits assumed): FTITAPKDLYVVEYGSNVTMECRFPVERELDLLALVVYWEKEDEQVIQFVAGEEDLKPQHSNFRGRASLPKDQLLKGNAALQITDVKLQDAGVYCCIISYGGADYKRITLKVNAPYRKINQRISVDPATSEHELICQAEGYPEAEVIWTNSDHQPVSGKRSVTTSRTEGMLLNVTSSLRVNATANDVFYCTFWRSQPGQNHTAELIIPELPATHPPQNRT
T8 sequence (Q8SPW2 17-208 limits assumed): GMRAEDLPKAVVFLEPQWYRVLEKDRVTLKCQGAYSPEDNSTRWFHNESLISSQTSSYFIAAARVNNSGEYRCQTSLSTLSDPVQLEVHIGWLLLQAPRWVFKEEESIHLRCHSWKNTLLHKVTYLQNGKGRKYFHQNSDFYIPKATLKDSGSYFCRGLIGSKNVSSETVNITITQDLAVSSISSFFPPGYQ

B1: AI3S79/N (bispecific antibody, human IgG1, kappa, lambda, L234A L235A)
heavy: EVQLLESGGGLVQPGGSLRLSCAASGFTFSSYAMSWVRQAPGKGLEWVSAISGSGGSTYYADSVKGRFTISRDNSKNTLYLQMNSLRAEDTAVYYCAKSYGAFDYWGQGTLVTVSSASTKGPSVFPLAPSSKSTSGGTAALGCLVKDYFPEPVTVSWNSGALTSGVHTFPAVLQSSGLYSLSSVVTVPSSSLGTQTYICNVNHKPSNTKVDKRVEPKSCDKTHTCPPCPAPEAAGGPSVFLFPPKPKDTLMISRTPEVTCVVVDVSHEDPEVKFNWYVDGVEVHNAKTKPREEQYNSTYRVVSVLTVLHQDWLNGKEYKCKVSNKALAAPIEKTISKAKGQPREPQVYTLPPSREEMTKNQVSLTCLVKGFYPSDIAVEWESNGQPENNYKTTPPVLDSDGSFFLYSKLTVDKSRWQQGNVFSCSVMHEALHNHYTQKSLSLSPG
light 1: not shown
light 2: QSALTQPASVSGSPGQSITISCTGTSSDVFRPPLVSWYQQHPGKAPKLMIYFASLRPSGVSNRFSGSKSGNTASLTISGLQAEDEADYYCSSWDHTGDGHVFGGGTKLTVLGQPKAAPSVTLFPPSSEELQANKATLVCLISDFYPGAVTVAWKADSSPVKAGVETTTPSKQSNNKYAASSYLSLTPEQWKSHRSYSCQVTHEGSTVEKTVAPTECS
notes: also called PD-L1xCD28 bsAb; PD-L1xCD28 κλ body
For orientation: Kd means the concentration at which binding is half-saturated. Read a high Kd as weaker binding. Broadly, the EC50 (read off the curve) is the midpoint of the concentration-response curve. For the molecule B1, the Kd with cynomolgus CD28 is around 54 nM; with human CD28, 54 nM; with mouse CD28, 11100 nM; with human PD-L1 it was 0.3 nM; in the test with cynomolgus PD-L1, 1.8 nM; in the test with mouse PD-L1 it was 0.79 nM. The Kd in test [1] amounted to 0.06 nM; in test [2] it was 7.1 nM; in test [3], 8.6 nM; with human CD64, 804 nM. Moreover, the binding result with human CD32a R167, in the test with human CD32a H167, with human CD32b, with human CD16a V158, in the test with human CD16a F158 and in the test with human CD16b NA2 was “no binding (tested: highest tested concentration: 2000 nM)” throughout. Further, the binding result in the test with cynomolgus CD16, with mouse CD64, in the test with mouse CD32b and in the test with mouse CD16 was “no binding (tested: highest tested concentration: 2000 nM)” in each case. The “EC50 (read off the curve)” value in [4] is around 0.9 µg/mL.

B2: S79 mAb (antibody, V domains shown)
VH: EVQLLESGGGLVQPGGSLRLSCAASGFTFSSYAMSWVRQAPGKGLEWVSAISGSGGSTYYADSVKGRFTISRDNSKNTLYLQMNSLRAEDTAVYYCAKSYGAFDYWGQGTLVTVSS
VL: QSALTQPASVSGSPGQSITISCTGTSSDVFRPPLVSWYQQHPGKAPKLMIYFASLRPSGVSNRFSGSKSGNTASLTISGLQAEDEADYYCSSWDHTGDGHVFGGGTKLTVL
notes: also called bivalent PD-L1 mAb based on the anti-PD-L1 arm S79
For the molecule B2, the “EC50 (read off the curve): RLU in the PD-1/PD-L1 blockade bioassay (blocked partner m28)” value in test [5] was around 0.02 µg/mL. In addition, in [4], the “EC50 (read off the curve)” value was around 0.6 µg/mL.

The values are drawn from patent publication US20240254234A1 (NOVIMMUNE, published 2024).
